Reference: patent publication US20150203577A1 (Chugai, published 2015)
Changes are numbered by the printed parent chain. Numbers in names are those of the source.

T1: mouse FcγRII (mouse, UniProt P08101 30-210)
T1 construct: Extracellular domain with C-terminal His tag, made in FreeStyle 293 cells; also called mFcγRII; mFcgRII
T1 sequence: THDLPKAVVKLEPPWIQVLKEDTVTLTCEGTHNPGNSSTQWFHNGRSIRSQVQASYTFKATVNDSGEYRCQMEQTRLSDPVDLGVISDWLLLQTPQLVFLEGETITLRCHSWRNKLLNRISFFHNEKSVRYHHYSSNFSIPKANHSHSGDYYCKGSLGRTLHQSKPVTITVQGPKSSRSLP

T2: mouse FcγRIII (mouse, UniProt P08508 31-215)
T2 construct: Extracellular domain with C-terminal His tag, made in FreeStyle 293 cells; also called mFcγRIII; mFcgRIII
T2 chain: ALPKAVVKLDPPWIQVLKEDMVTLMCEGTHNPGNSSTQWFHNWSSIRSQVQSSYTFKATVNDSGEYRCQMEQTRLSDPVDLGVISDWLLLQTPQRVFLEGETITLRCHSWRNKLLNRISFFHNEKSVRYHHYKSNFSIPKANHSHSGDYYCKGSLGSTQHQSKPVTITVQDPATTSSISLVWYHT

T3: mouse FcγRII extracellular domain, C-terminal His tag (mouse, UniProt P08101 30-210)
T3 construct: Whole entry named; also called mFcγRII; mFcgRII
T3 sequence: T1 sequence

T4: mouse FcγRIII extracellular domain, C-terminal His tag (mouse, UniProt P08508 31-215)
T4 construct: Whole entry named; also called mFcγRIII; mFcgRIII
T4 chain: T2 chain

B1: H237-MB886/MRAL-k0 (antibody, mouse IgG1, kappa)
heavy: QVQLQESGPGLVKPSETLSLTCAVSGHSISHDHAWSWVRQPPGEGLEWIGFISYSGITNYNPSLQGRVTISRDNSKNTLYLQMNSLRAEDTAVYYCARSLARTTAMDYWGEGTLVTVSSAKTTPPSVYPLAPGSAAQTNSMVTLGCLVKGYFPEPVTVTWNSGSLSSGVHTFPAVLQSDLYTLSSSVTVPSSTWPSETVTCNVAHPASSTKVDKKIVPRDCGCKPCICEPNEEESVFIFPPKPKDVLTITLTPKVTCVVVDISKDDPEVQFSWFVDDVEVHTAQTQPREEQFNSTFRSVSELPIMHQDWLNGKEFKCRVNSAAFPAPIEKTISKTKGRPKAPQVYTIPPPKEQMAKDKVSLTCMITDFFPEDITVEWQWNGQPAENYKNTQPIMDTDGSYFVYSKLNVQKSNWEAGNTFTCSVLHEGLHNHHTEKSLSHSPGK
light: not shown
notes: copies: 2 + 2
B2: H237-MB715/MRAL-k0 (antibody, mouse IgG1, kappa)
heavy: B1 heavy with E233V, S235V
light: not shown
notes: copies: 2 + 2
B3: H237-MB731/MRAL-k0 (antibody, mouse IgG1, kappa)
heavy: B1 heavy with N231A, S235L
light: not shown
notes: copies: 2 + 2
B4: H237-MB732/MRAL-k0 (antibody, mouse IgG1, kappa)
heavy: B1 heavy with S235L
light: not shown
notes: copies: 2 + 2
B5: H237-MB709/MRAL-k0 (antibody, mouse IgG1, kappa)
heavy: B1 heavy with N231A, E233V, S235T
light: not shown
notes: copies: 2 + 2
B6: H237-MB793/MRAL-k0 (antibody)
heavy: B1 heavy with E229Q, E233V, S235I
light: not shown
notes: 'S2391' in r30c2 read as S239I; copies: 2 + 2
B7: H237-MB718/MRAL-k0 (antibody, mouse IgG1, kappa)
heavy: B1 heavy with E233V, S235T
light: not shown
notes: copies: 2 + 2
B8: H237-MB717/MRAL-k0 (antibody, mouse IgG1, kappa)
heavy: B1 heavy with E233V, S235P
light: not shown
notes: copies: 2 + 2
B9: H237-MB628/MRAL-k0 (antibody)
heavy: B1 heavy with N231A, E233V, S235L
light: not shown
notes: copies: 2 + 2
B10: H237-MB692/MRAL-k0 (antibody, mouse IgG1, kappa)
heavy: B1 heavy with N231P, E233V, S235Y
light: not shown
notes: copies: 2 + 2
B11: H237-MB690/MRAL-k0 (antibody, mouse IgG1, kappa)
heavy: B1 heavy with E229T, N231A, E233V, S235Y
light: not shown
notes: copies: 2 + 2
B12: H237-MB645/MRAL-k0 (antibody, mouse IgG1, kappa)
heavy: B1 heavy with P230V, N231Y, E233V, S235Y
light: not shown
notes: copies: 2 + 2
B13: H237-MB632/MRAL-k0 (antibody, mouse IgG1, kappa)
heavy: B1 heavy with P230A, N231Y, E233V, S235N
light: not shown
notes: copies: 2 + 2
B14: H237-MB702/MRAL-k0 (antibody, mouse IgG1, kappa)
heavy: B1 heavy with E229T, P230A, N231Y, E233V, S235N
light: not shown
notes: copies: 2 + 2
B15: H237-MB687/MRAL-k0 (antibody)
heavy: B1 heavy with N231P, E233V, S235L
light: not shown
notes: copies: 2 + 2
B16: H237-MB642/MRAL-k0 (antibody, mouse IgG1, kappa)
heavy: B1 heavy with P230D, N231Y, E233V, S235Y
light: not shown
notes: copies: 2 + 2
B17: H237-MB685/MRAL-k0 (antibody, mouse IgG1, kappa)
heavy: B1 heavy with E229T, N231A, E233V, S235L
light: not shown
notes: copies: 2 + 2
B18: H237-MB646/MRAL-k0 (antibody, mouse IgG1, kappa)
heavy: B1 heavy with N231A, E233V, S235Y
light: not shown
notes: copies: 2 + 2
B19: H237-MB657/MRAL-k0 (antibody, mouse IgG1, kappa)
heavy: B1 heavy with E233V, S235F
light: not shown
notes: copies: 2 + 2
B20: H237-MB691/MRAL-k0 (antibody, mouse IgG1, kappa)
heavy: B1 heavy with P230V, N231A, E233V, S235Y
light: not shown
notes: copies: 2 + 2
B21: H237-MB694/MRAL-k0 (antibody)
heavy: B1 heavy with P230D, N231P, E233V, S235Y
light: not shown
notes: copies: 2 + 2
B22: H237-MB636/MRAL-k0 (antibody, mouse IgG1, kappa)
heavy: B1 heavy with P230V, N231Y, E233V, S235N
light: not shown
notes: copies: 2 + 2
B23: H237-MB689/MRAL-k0 (antibody, mouse IgG1, kappa)
heavy: B1 heavy with P230V, N231P, E233V, S235N
light: not shown
notes: copies: 2 + 2
B24: H237-MB695/MRAL-k0 (antibody, mouse IgG1, kappa)
heavy: B1 heavy with E229T, E233V, S235F
light: not shown
notes: copies: 2 + 2
B25: H237-MB698/MRAL-k0 (antibody, mouse IgG1, kappa)
heavy: B1 heavy with P230V, N231P, S235L
light: not shown
notes: copies: 2 + 2
B26: H237-MB686/MRAL-k0 (antibody, mouse IgG1, kappa)
heavy: B1 heavy with P230V, N231A, E233V, S235L
light: not shown
notes: copies: 2 + 2
B27: H237-MB700/MRAL-k0 (antibody, mouse IgG1, kappa)
heavy: B1 heavy with P230V, N231P, S235Y
light: not shown
notes: copies: 2 + 2
B28: H237-MB696/MRAL-k0 (antibody, mouse IgG1, kappa)
heavy: B1 heavy with P230V, E233V, S235F
light: not shown
notes: copies: 2 + 2
B29: H237-MB688/MRAL-k0 (antibody, mouse IgG1, kappa)
heavy: B1 heavy with E229T, P230V, N231Y, E233V, S235N
light: not shown
notes: copies: 2 + 2
B30: H237-MB693/MRAL-k0 (antibody, mouse IgG1, kappa)
heavy: B1 heavy with E229T, P230D, N231Y, E233V, S235Y
light: not shown
notes: copies: 2 + 2

target: T1, mouse FcγRII; assay: SPR (Biacore), antibody captured on Protein L

Row | Kd | Binder
1 | 0.246 µM | B1
2 | 0.236 µM | B2
3 | 0.238 µM | B3
4 | 0.321 µM | B4
5 | 0.345 µM | B5
6 | 0.179 µM | B6
7 | 0.247 µM | B7
8 | 0.514 µM | B8

Target: T2, mouse FcγRIII
Assay: SPR (Biacore), antibody captured on Protein L

Row | Kd | Binder
9 | 7.22 µM | B1
10 | 11.9 µM | B2
11 | 15.3 µM | B3
12 | 13.7 µM | B4
13 | 7.69 µM | B5
14 | 5.5 µM | B6
15 | 5.56 µM | B7
16 | 8.62 µM | B8

target: T3, mouse FcγRII extracellular domain, …; assay: SPR (Biacore T200); KD of H237-mIgG1/MRAL-k0 / KD of variant
Source text: (§1) The antibody H chain variable region used was the variable region H237 (SEQ ID NO: 1) of the H chain VH3-IgG1 of the anti-IL-6 receptor antibody Fv4-IgG1 described in WO2009/125825. The antibody L chain commonly used was the L chain MRAL-k0 (SEQ ID NO: 2) of the anti-IL-6 receptor antibody tocilizumab. The aforementioned 7 variants were used as templates to substitute the amino acids at the alteration sites by the amino acids before the alteration. These variants were expressed and purified by the method of Reference Example 1 and evaluated for their binding to mFcγRII and mFcγRIII by the method of Reference Example 2 using Biacore T200.
(§2) Each altered antibody was analyzed for its interaction with each Fcγ receptor prepared above using Biacore T100 (GE Healthcare Japan Corp.), Biacore T200 (GE Healthcare Japan Corp.), Biacore A100, or Biacore 4000. The running buffer used was HBS-EP+ (GE Healthcare Japan Corp.). The assay temperature was set to 25° C. The sensor chips used were chips prepared by immobilizing Protein L (ACTIGEN or BioVision) onto Series S Sensor Chip CM5 (GE Healthcare Japan Corp.) or Series S Sensor Chip CM4 (GE Healthcare Japan Corp.) by the amine coupling method.

Row | relative mFcγRII-binding activity (mIgG1 = 1) | Binder
17 | 2.09 fold | B9
18 | 1.75 fold | B10
19 | 1.6 fold | B11
20 | 1.06 fold | B12
21 | 3.72 fold | B13
22 | 0.96 fold | B14
23 | 0.943 fold | B15
24 | 1.65 fold | B16
25 | 0.606 fold | B17
26 | 3.8 fold | B18
27 | 1.54 fold | B19
28 | 0.582 fold | B20
29 | 0.544 fold | B21
30 | 3.92 fold | B22
31 | 0.413 fold | B23
32 | 0.435 fold | B24
33 | 0.194 fold | B25
34 | 0.167 fold | B26
35 | 0.559 fold | B27
36 | 0.4 fold | B28
37 | 0.634 fold | B29
38 | 1.22 fold | B30

Target: T4, mouse FcγRIII extracellular domain, …
Assay: as above
Source text: as §1, §2

Row | relative mFcγRIII-binding activity (mIgG1 = 1) | Binder
39 | 0.083 fold | B9
40 | 0.115 fold | B10
41 | 0.188 fold | B11
42 | 0.217 fold | B12
43 | 0.236 fold | B13
44 | 0.145 fold | B14
45 | 0.096 fold | B15
46 | 0.1 fold | B16
47 | 0.093 fold | B17
48 | 0.176 fold | B18
49 | 0.087 fold | B19
50 | 0.071 fold | B20
51 | 0.031 fold | B21
52 | 0.172 fold | B22
53 | 0.075 fold | B23
54 | 0.088 fold | B24
55 | 0.024 fold | B25
56 | 0.052 fold | B26
57 | 0.044 fold | B27
58 | 0.094 fold | B28
59 | 0.081 fold | B29
60 | 0.094 fold | B30

target: T1, mouse FcγRII; assay: SPR (Biacore), KD of H237-mIgG1/MRAL-k0 (same run) / KD of variant
Procedure: as §2
(§3) In order to calculate the KD value of each altered antibody for FcγR, kinetic analysis was conducted according to the following method: first, the antibody of interest was captured onto any of these chips and allowed to interact with mFcγR diluted with a running buffer. For the obtained sensorgram, the assay results were globally fit into the 1:1 Langmuir binding model using Biacore Evaluation Software to calculate an association rate constant ka (L/mol/s) and a dissociation rate constant kd (1/s). From these values, the dissociation constant KD (mol/L) was calculated.

Row | relative mFcγRII-binding activity (mIgG1 = 1) | Binder
61 | 1.47 fold | B1
62 | 1.14 fold | B2
63 | 1.13 fold | B3
64 | 0.84 fold | B4
65 | 0.78 fold | B5
66 | 1.37 fold | B6
67 | 1.08 fold | B7
68 | 0.52 fold | B8

Target: T2, mouse FcγRIII
Assay: as above
Procedure: as §2, §3

Row | relative mFcγRIII-binding activity (mIgG1 = 1) | Binder
69 | 0.08 fold | B1
70 | 0.04 fold | B2
71 | 0.03 fold | B3
72 | 0.03 fold | B4
73 | 0.06 fold | B5
74 | 0.07 fold | B6
75 | 0.08 fold | B7
76 | 0.05 fold | B8
